Where a chain is given by its changes, count along the chain named. Numbers in names are those of the source.

First the molecules themselves.
B1: LB-Rb (379-928) A488V (protein, part only; not given: Large BiT luciferase tag, human, UniProt P06400 379-928, looked up, part only)
chain, part: MNTIQQLMMILNSASDQPSENLISYFNNCTVNPKESILKRVKDIGYIFKEKFAKAVGQGCVEIGSQRYKLGVRLYYRVMESMLKSEEERLSIQNFSKLLNDNIFHMSLLVCALEVVMATYSRSTSQNLDSGTDLSFPWILNVLNLKAFDFYKVIESFIKAEGNLTREMIKHLERCEHRIMESLAWLSDSPLFDLIKQSKDREGPTDHLESACPLNLPLQNNHTAADMYLSPVRSPKKKGSTTRVNSTANAETQATSAFQTQKPLKSTSLSLFYKKVYRLAYLRLNTLCERLLSEHPELEHIIWTLFQHTLQNEYELMRDRHLDQIMMCSMYGICKVKNIDLKFKIIVTAYKDLPHAVQETFKRVLIKEEEYDSIIVFYNSVFMQRLKTNILQYASTRPPTLSPIPHIPRSPYKFPSSPLRIPGGNIYISPLKSPYKISEGLPTPTKMTPRSRILVSIGESFGTSEKFQKINQMVCNSDRVLKRSAEGSNPPKPLKKLRFDIEGSDEADGSKHLPGESKFQQKLAEMTSTRTRMQKQKMNDSMDTSNKEEK
B2: LB-Rb (379-928) R661W (protein, part only; not given: Large BiT luciferase tag, human, UniProt P06400 379-928, looked up, part only)
chain, part: B1 chain, part with V110A, R283W
B3: LB-Rb (379-928) C706F (protein, part only; not given: Large BiT luciferase tag, human, UniProt P06400 379-928, looked up, part only)
chain, part: B1 chain, part with V110A, C328F
B4: LB-Rb (379-928) R621S (protein, part only; not given: Large BiT luciferase tag, human, UniProt P06400 379-928, looked up, part only)
chain, part: B1 chain, part with V110A, R243S
B5: LB-Rb (379-928) R698W (protein, part only; not given: Large BiT luciferase tag, human, UniProt P06400 379-928, looked up, part only)
chain, part: B1 chain, part with V110A, R320W
B6: LB-Rb (379-928) L665R (protein, part only; not given: Large BiT luciferase tag, human, UniProt P06400 379-928, looked up, part only)
chain, part: B1 chain, part with V110A, L287R
B7: LB-Rb (379-928) I724N (protein, part only; not given: Large BiT luciferase tag, human, UniProt P06400 379-928, looked up, part only)
chain, part: B1 chain, part with V110A, I346N
B8: LB-Rb (379-928) R656W (protein, part only; not given: Large BiT luciferase tag, human, UniProt P06400 379-928, looked up, part only)
chain, part: B1 chain, part with V110A, R278W
B9: LB-Rb (379-928) R798Q (protein, part only; not given: Large BiT luciferase tag, human, UniProt P06400 379-928, looked up, part only)
chain, part: B1 chain, part with V110A, R420Q
B10: LB-Rb (379-928) E440K (protein, part only; not given: Large BiT luciferase tag, human, UniProt P06400 379-928, looked up, part only)
chain, part: B1 chain, part with E62K, V110A
B11: LB-Rb (379-928) V654M (protein, part only; not given: Large BiT luciferase tag, human, UniProt P06400 379-928, looked up, part only)
chain, part: B1 chain, part with V110A, V276M

E2F1-SB, DP1 (E2F1 fragment with C-terminal Small BiT, co-expressed with Dp-1) (human), sequence (Q01094 whole entry, chain 1 of 2, the tested form may be a part): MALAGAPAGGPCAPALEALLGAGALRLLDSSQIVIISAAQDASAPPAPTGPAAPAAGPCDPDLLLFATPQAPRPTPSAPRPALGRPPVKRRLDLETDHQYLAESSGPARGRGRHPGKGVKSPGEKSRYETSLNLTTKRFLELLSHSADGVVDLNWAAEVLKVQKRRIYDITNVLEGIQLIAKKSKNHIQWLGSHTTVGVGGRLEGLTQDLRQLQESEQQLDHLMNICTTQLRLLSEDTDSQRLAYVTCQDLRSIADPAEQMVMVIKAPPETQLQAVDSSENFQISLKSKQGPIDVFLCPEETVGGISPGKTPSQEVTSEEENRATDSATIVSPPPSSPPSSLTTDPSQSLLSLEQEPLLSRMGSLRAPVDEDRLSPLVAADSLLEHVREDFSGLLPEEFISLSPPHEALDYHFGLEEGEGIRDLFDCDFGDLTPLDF
E2F1-SB, DP1 (E2F1 fragment with C-terminal Small BiT, co-expressed with Dp-1) (human), sequence (Q14186 whole entry, chain 2 of 2, further chain, the tested form may be a part): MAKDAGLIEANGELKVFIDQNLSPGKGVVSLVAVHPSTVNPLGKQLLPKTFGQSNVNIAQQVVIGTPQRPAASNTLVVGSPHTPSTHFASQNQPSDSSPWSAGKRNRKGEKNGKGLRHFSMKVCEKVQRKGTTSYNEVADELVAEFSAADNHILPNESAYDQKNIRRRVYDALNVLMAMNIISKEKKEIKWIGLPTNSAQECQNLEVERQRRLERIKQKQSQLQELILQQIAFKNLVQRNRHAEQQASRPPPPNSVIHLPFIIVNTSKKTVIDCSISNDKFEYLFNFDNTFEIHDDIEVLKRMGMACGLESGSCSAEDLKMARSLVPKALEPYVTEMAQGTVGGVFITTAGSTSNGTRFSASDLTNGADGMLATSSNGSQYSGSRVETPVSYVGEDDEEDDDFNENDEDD

This experiment addresses E2F1-SB, DP1 (E2F1 fragment with C-terminal Small BiT, co-expressed with Dp-1) (human) (UniProt Q01094). Briefly: NanoBiT split-luciferase complementation, cells stably expressing E2F1-SB and Dp-1; relative to WT LB-Rb.
Turning to “LB-Rb (379-928) R661del1, out-of-frame deletion mutant (from UniProt P06400 379-660)”, the % (/wt) luciferase activity is 0.8 % (/wt).

As to “LB-Rb (379-928) I703del35, in-frame deletion mutant (from UniProt P06400 379-702; P06400 738-928)”, the % (/wt) luciferase activity was 8.6 % (/wt).

Turning to “LB-Rb (379-928) R798W (from UniProt P06400 379-928)”, the % (/wt) luciferase activity is 120 % (/wt). Take B1: the % (/wt) luciferase activity is 51 % (/wt). For B2, the % (/wt) luciferase activity was 5.2 % (/wt). In the case of B3 it was 5.5 % (/wt). For the molecule B4, the % (/wt) luciferase activity is 124 % (/wt). For B5, the % (/wt) luciferase activity was 6.4 % (/wt).

Turning to B6, the % (/wt) luciferase activity was 5 % (/wt).

As for B7, the % (/wt) luciferase activity was 7.4 % (/wt). On to B8, for which the % (/wt) luciferase activity is 79 % (/wt). The value for B9 was 92 % (/wt). The value for B10 was 47 % (/wt); that for B11 was 132 % (/wt).

The record behind these values is patent US20220073935A1.
